T1: His-KsgA (1-213) (Escherichia coli, UniProt P06992 1-213, del214-273)
T1 sequence: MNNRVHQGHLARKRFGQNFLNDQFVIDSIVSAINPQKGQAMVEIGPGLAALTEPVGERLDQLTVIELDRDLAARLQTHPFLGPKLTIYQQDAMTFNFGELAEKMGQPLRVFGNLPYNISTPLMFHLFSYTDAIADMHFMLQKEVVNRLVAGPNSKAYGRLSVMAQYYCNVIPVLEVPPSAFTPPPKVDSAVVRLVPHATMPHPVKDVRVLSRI

T2: His-KsgA (1-273) (Escherichia coli, UniProt P06992 1-273)
T2 sequence: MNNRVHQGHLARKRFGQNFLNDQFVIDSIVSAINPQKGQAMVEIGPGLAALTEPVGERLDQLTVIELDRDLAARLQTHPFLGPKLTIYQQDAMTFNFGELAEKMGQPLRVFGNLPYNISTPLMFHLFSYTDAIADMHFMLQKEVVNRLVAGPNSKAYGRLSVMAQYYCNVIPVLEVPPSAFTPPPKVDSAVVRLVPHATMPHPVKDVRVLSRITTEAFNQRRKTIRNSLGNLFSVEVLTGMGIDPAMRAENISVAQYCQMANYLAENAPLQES

T3: His-KsgA (9-273) (Escherichia coli, UniProt P06992 9-273, del1-8)
T3 sequence: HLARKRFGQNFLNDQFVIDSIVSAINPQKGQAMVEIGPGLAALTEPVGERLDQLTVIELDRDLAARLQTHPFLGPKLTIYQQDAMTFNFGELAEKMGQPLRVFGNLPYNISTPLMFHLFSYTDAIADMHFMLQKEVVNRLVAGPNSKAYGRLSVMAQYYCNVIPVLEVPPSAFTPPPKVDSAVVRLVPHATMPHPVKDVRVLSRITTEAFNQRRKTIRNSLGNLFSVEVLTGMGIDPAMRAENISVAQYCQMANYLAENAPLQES

B1: Tg/C duplex (dsDNA)
DNA 1: GCTGCCCGGGGGTTCCTCTTGTTC
DNA 2: GAACAAGAGTAACCCCCGGGCAGC
modifications: thymine glycol (Tg) opposite C
B2: 5-ohC/A duplex (dsDNA)
DNA 1: GAACTAGTGCATCCCCCGGGCTGC
DNA 2: GCAGCCCGGGGGATACACTAGTTC
modifications: 5-hydroxycytosine (5-ohC) opposite A
B3: 5-ohC/G duplex (dsDNA)
DNA 1: GAACTAGTGCATCCCCCGGGCTGC
DNA 2: GCAGCCCGGGGGATGCACTAGTTC
modifications: 5-hydroxycytosine (5-ohC) opposite G
B4: 5-ohC/T duplex (dsDNA)
DNA 1: GAACTAGTGCATCCCCCGGGCTGC
DNA 2: GCAGCCCGGGGGATTCACTAGTTC
modifications: 5-hydroxycytosine (5-ohC) opposite T
B5: 5-ohC/C duplex (dsDNA)
DNA 1: GAACTAGTGCATCCCCCGGGCTGC
DNA 2: GCAGCCCGGGGGATCCACTAGTTC
modifications: 5-hydroxycytosine (5-ohC) opposite C
B6: 5-foU/C duplex (dsDNA)
DNA 1: GGTACCTTCAGTCGACC
DNA 2: GGTCGACTUAAGGTACC
modifications: 5-formyluracil (5-foU) opposite C

biological target: T1, His-KsgA (1-213); experiment: EMSA; 100 pmol protein, 10 fmol DNA, 500 ng calf thymus DNA; EMSA, 10 ul, 4 C, 60 min: 25 mM Tris-HCl pH 8.0, 500 uM DTT, 500 uM EDTA, 10% glycerol, 25 mM NaCl, 25 mM KCl, 10 uM ZnCl2, 125 uM each dNTP, 4 mM spermidine, 500 ng calf thymus DNA, 10 fmol 32P-dsDNA, 100 pmol protein; 12% PAGE; settings: protein: recombinant; tags: His (pET21a(+), BamHI/XhoI); label: 5'-32P

Row | Binder | binding result
1 | B1 | no binding
2 | B2 | no binding
3 | B3 | no binding
4 | B4 | no binding
5 | B5 | no binding

biological target: T2, His-KsgA (1-273); experiment: as above; settings: protein: recombinant; tags: His (pET21a(+), BamHI/XhoI); label: 5'-32P

Row | Binder | binding result
6 | B6 | binds
7 | B1 | binds
8 | B2 | binds
9 | B3 | binds
10 | B4 | binds
11 | B5 | binds

biological target: T3, His-KsgA (9-273); experiment: as above; settings: protein: recombinant; tags: His (pET21a(+), BamHI/XhoI); label: 5'-32P

Row | Binder | binding result
12 | B6 | binds
13 | B1 | binds
14 | B2 | binds
15 | B3 | binds
16 | B4 | binds
17 | B5 | binds
